US20230382948A1, “DELIVERY OF ENDOTHELIAL CELL-LADEN MICROGEL ELICITS ANGIOGENESIS IN SELF-ASSEMBLING ULTRASHORT PEPTIDE HYDROGELS” (KING ABDULLAH UNIVERSITY OF SCIENCE AND TECHNOLOGY, priority 2020, published 2023)

Assays:
[1] = Microgel fabrication by flow-focusing microfluidics, microgel imaging (diameter, roundness); type: physicochemical; conditions: for Microgel average diameter: SUP solution 1.5 wt %, oil with Span 80 (2%) and sodium chloride
Method: Since the microgels are intended to be cell carriers, the fabrication materials were sterilized before use when possible and handled aseptically inside a biosafety cabinet (BSC) to reduce contamination risk. Milli-Q® water and hexadecane were sterilized by autoclaving at 121° C. for 20 min. Light mineral oil was sterilized by dry heating at 160° C. for 1 h. Peptide powder and sodium chloride were sterilized by UV irradiation (GE® germicidal lamp 30 W) for 30 min inside BSC. Once sterile, the peptide powder was dissolved to 27.1 mM (15 mg/mL) in sterile Milli-Q® water by vortexing for 5 min and incubated at room temperature (22° C.) for 1 h (preassembly). Span 80 was dissolved to 2% (v/v) into light mineral oil and hexadecane, independently. Sodium chloride was added to the light mineral oil+Span 80 mix and shaked to disperse the sodium chloride crystals. The peptide solution was loaded in a 1 mL syringe, while the light mineral oil with Span 80 2% (v/v) and sodium chloride 3 mg/mL were loaded in a 3 mL syringe. Both syringes were connected with the microfluidic system, and both solutions were brought to the droplet generator point by pressing the syringes manually. Then, both syringes were inserted into the pumps, and the flow rate was set at 10 μL/min for continuous phase (light mineral oil with Span 80 and sodium chloride) and 1 μL/min for dispersed phase (peptide solution). Droplet generation was monitored by on-site bright-field microscopy, and once it was stable and continuous, the droplets were collected in a tube containing light mineral oil with Span 80 2% (v/v). To confirm peptide droplet gelation, FluoSpheres® or QD were sometimes incorporated into the peptide solution during the preassembly incubation. Microgels were isolated from oil adding the same volume of hexadecane containing Span 80 (2% v/v) and centrifuged at 10 g for 5 min, and the oil layer was discarded. Microgels were washed with hexadecane plus Span 80 (2% v/v) two more times, discarding the hexadecane layer. A volume of DPBS containing Tween 20 (10% v/v) was gently added on the microgels through the collection tube walls and removed after 5 min. DPBS—Tween 20 washing was repeated 2 more times, decreasing the Tween 20 content to 1% v/v and 0.1% v/v sequentially. Finally, 250μL of DPBS was added on the microgels to keep them soaked, and they were kept on a shelf (22° C.) until further use. The microgel shape and size were checked by confocal laser scanning microscopy (CLSM).
Microgel imaging was done at each condition and time point using a CLSM Zeiss® 710 or 880 by tile scanning with 15% overlapping and online stitching to capture as many microgels as possible from the dish. The Feret diameter and roundness of each microgel was calculated using ImageJ software by manually drawing up to 59 microgel contours per condition. All statistical data analysis and microgel descriptor plotting were conducted in Origin software. To assess the effect of the treatments on the microgel diameter and roundness, a Kruskal—Wallis test with Posthoc test pairwise Mann—Whitney U tests was applied.

[2] = system: endothelial cells (HUVECs); assay: Cell culture on microgels, HUVEC; type: cell-based, human; conditions: first 24 h of culture
Method: A 1.2×10^6 amount of cells suspended in 4 mL of complete cell culture media (300,000 cells/mL) was mixed with 200 μL of microgels by pipetting. The mix was seeded at […] in a 24-well low binding plate and kept at 37° C., 95% humidity, and 5% CO2 under rocker conditions at 30 rpm for 24 h. Then, cell-laden microgels were transferred into a tube by pipetting and spun down at 50 g for 5 min. The upper layer, containing cells not adherent to the microgels, was discarded. At this moment, cell-laden microgels were either resuspended with complete cell culture media to continue cell culture under rocker conditions or processed for staining.
The cell-laden microgels were fixed with 4% formaldehyde (v/v) in PBS and incubated for 30 min at 22° C. Later, formaldehyde was removed by centrifugation, and cell-laden microgels were washed twice with PBS in a similar way. Permeabilization buffer (6.3 mM MgCl2, 233.7 mM sucrose, 0.5% (v/v) Triton® X-100 in PBS) was kept at −20° C. and thawed just before use. […]
Proliferative cells were labeled by incubating cell-laden microgels with […] EdU in complete medium for 24 h in rocking culture at 30 rpm. […] EdU was detected following the manufacturer instructions by incubating cell-laden microgels with a Click-iT Plus reaction cocktail for 30 min at 22° C. protected from light. […]

[3] = after extraction to the aqueous phase (PBS)

| Substance | Microgel swelling on extraction from the oil phase to the aqueous phase [1] | Microgel average diameter [1] | Microgel roundness, average [1, 3] | Microgel roundness, average ([1]; in oil) | HUVEC cell adhesion and morphology on microgels [2] | Minimum concentration with many intact microgels after isolation in the aqueous phase [1] |
| --- | --- | --- | --- | --- | --- | --- |
| Ac-Ile-Val-Cha-Lys-NH2 (IVXK; HELM PEPTIDE1{[ac].I.V.[Cha].K.[am]}$$$$V2.0; SMILES CC[C@H](C)[C@H](NC(C)=O)C(=O)N[C@H](C(=O)N[C@@H](CC1CCCCC1)C(=O)N[C@@H](CCCCN)C(N)=O)C(C)C) [IVZK, self-assembling ultrashort tetrapeptide, Z = cyclohexylalanine, forms hydrogels and microgels] | not | 350 μm | 0.88 | 0.98 | cell adhesion and stretched morphology |  |
| Ac-Ile-Val-Phe-Lys-NH2 (Ac-IVFK-NH2) [self-assembling ultrashort tetrapeptide, forms hydrogels and microgels] | 50 μm | 300 μm | 0.88 | 0.98 | cell adhesion and stretched morphology | 0.8 wt % |
